Assay results reported in patent publication US20030044400A1, “Composition and method for treating cells” (priority 2001, published 2003).
Where “and” joins values, the source holds several entries; their conditions need not be identical. Equal entries are not always repeated.

Assay: Rabbit Study to Determine the Safety of Fetuin by Intravenous Administration
Format: in vivo
Set-up: Temp Increase / Wt. Gain Mar. 6, 2000 / Wt. Gain April 6, 2000 / Wt. Gain April 19, 2000 / Mean of Wt.Gain / Globulin / Alanine Transferase / Aspartate Transferase / Mean of ALT / Mean of AST: unit not given here
Details: rabbits; for Temp Increase: monitored 3 hours post injection; for Blood Glucose Level / Mean of blood Glucose level: non-fasting; for Wt. Gain: over 7 week period; for Albumin / Globulin: serum
Method: Rabbits weighing 1.75 to 2.5 kg are used in the study, 2 rabbits/group. The control group receives 1 ml of saline. […] All dilutions are made with sterile pyrogen free saline (0.9%). The study is designed to limit to an acceptable level the risk of a febrile reaction in patients. The animals are given their respective doses of Fetuin at two-day interval for a total of three doses if no reaction occurs. Blood samples are collected for a baseline prior to treatment and then 24-36 hours after the third treatment. At the end of the treatment period, blood is drawn to perform hematology to compare with the baseline levels. The body temperature is recorded for three hours post injection to determine if a febrile reaction is produced. The body temperature is monitored prior to injection (30 min) and then at 30 min interval for three hours. Prior to sacrifice, blood is drawn from each animal to determine the serum level of Fetuin. Organs are examined in all animals. The target organs: spleen, lymph nodes, thymus are examined for evidence of increased size. All tissues excised are preserved in 10% formalin for subsequent histopathology if necessary. Observations made at each dose level are tabulated to see if there is any correlation of symptoms and/or mortality and dose level of the test material. Body weights and necropsy results are recorded. Rabbit body temperature increases for each dose level is reported and conclusions made from the study.

In the case of “Fetuin: Fetal bovine fetuin purified from fetal bovine serum by modified Spiro method; 60 Kd glycoprotein, homologue of alpha 2-HS glycoprotein”, the “signs of distress during the test” value is reported as “None of the animals displayed any signs of distress”, the “toxicity, conclusion of rabbit study” value (iv) is reported as “no toxicity” and the “Alanine Transferase” value (iv, 65.7 mg/kg) is reported as 54 and 29. For the same substance, the “Albumin/Globulin Ratio” value (iv, 65.7 mg/kg) was 13.8 and 11.2, the “Aspartate Transferase” value (iv, 65.7 mg/kg) was 28 and 32 and the “Blood Urea Nitrogen” value (iv, 65.7 mg/kg) was 21 mg/dL and 24 mg/dL. For the same substance, the “Cholesterol” value (iv, 65.7 mg/kg) was 69 mg/dL and 71 mg/dL, the “Cholesterol Mean” value (iv, 65.7 mg/kg) was 70 mg/dL and the Hematocrit (iv, 65.7 mg/kg) was 37.0% and 40.2%. The “Hematocrit % Mean” value (iv, 65.7 mg/kg) was 38.6%, the Hemoglobin (iv, 65.7 mg/kg) was 12.6 g/dL and 13.4 g/dL and the “Hemoglobin Mean” value (iv, 65.7 mg/kg) was 13.0 g/dL. The “Mean of ALT” value (iv, 65.7 mg/kg) was 41.5, the “Mean of AST” value (iv, 65.7 mg/kg) was 30 and the “Mean of BUN” value (iv, 65.7 mg/kg) was 22.5 mg/dL. For the same substance, the “Mean of WBC” value (iv, 65.7 mg/kg) was 8.5 K/ul, the “Mean of Wt.Gain” value (iv, 65.7 mg/kg) was 1.14 and the “Spleen Wt.” value (iv, 65.7 mg/kg) was 1.72 g and 1.54 g. For the same substance, the “Spleen Wt. Mean” value (iv, 65.7 mg/kg) was 1.63 g, the “Thymus Wt.” value (iv, 65.7 mg/kg) was 5.21 g and 6.56 g and the “Thymus Wt. Mean” value (iv, 65.7 mg/kg) was 5.85 g. The “Ttl Serum Protn” value (iv, 65.7 mg/kg) was 5.9 g/dL and 6.1 g/dL, the “WBC, K/ul” value (iv, 65.7 mg/kg) was 6.9 K/ul and 10.1 K/ul and the “Wt. Gain April 6, 2000” value (iv, 65.7 mg/kg) was 3.15 and 3.28. For the same substance, the “Wt. Gain April 19, 2000” value (iv, 65.7 mg/kg) was 3.65 and 3.72, the “Wt. Gain Mar. 6, 2000” value (iv, 65.7 mg/kg) was 2.48 and 2.61 and the “Temp Increase” value (iv, 65.7 mg/kg, Apr. 6, 2000) was 0. The “Temp Increase” value (iv, 65.7 mg/kg, Mar. 6, 2000) was 0, the “Blood Glucose Level” value (iv, 65.7 mg/kg) was 94 mg/dL and 88 mg/dL and the “Mean of blood Glucose level” value (iv, 65.7 mg/kg) was 91 mg/dL. The “Wt. Gain” value (iv, 65.7 mg/kg) was 1.17 kg and 1.11 kg, the Albumin (iv, 65.7 mg/kg) was 5.5 and 5.6 and the Globulin (iv, 65.7 mg/kg) was 0.4 and 0.5. The “Alanine Transferase” value (iv, 126 mg/kg) was 42 and 32, the “Albumin/Globulin Ratio” value (iv, 126 mg/kg) was 8.8 and the “Aspartate Transferase” value (iv, 126 mg/kg) was 37 and 66. For the same substance, the “Blood Urea Nitrogen” value (iv, 126 mg/kg) was 20 mg/dL and 17 mg/dL, the “Cholesterol” value (iv, 126 mg/kg) was 66 mg/dL and 49 mg/dL and the “Cholesterol Mean” value (iv, 126 mg/kg) was 57.5 mg/dL. For the same substance, the Hematocrit (iv, 126 mg/kg) was 38.2% and 38.6%, the “Hematocrit % Mean” value (iv, 126 mg/kg) was 38.4% and the Hemoglobin (iv, 126 mg/kg) was 12.4 g/dL and 12.9 g/dL. For the same substance, the “Hemoglobin Mean” value (iv, 126 mg/kg) was 12.6 g/dL, the “Mean of ALT” value (iv, 126 mg/kg) was 37 and the “Mean of AST” value (iv, 126 mg/kg) was 51.5. For the same substance, the “Mean of BUN” value (iv, 126 mg/kg) was 18.5 mg/dL, the “Mean of WBC” value (iv, 126 mg/kg) was 8.1 K/ul and the “Mean of Wt.Gain” value (iv, 126 mg/kg) was 0.76. For the same substance, the “Spleen Wt.” value (iv, 126 mg/kg) was 1.37 g and 1.9 g, the “Spleen Wt. Mean” value (iv, 126 mg/kg) was 1.43 g and the “Thymus Wt.” value (iv, 126 mg/kg) was 4.90 g and 5.21 g. For the same substance, the “Thymus Wt. Mean” value (iv, 126 mg/kg) was 5.05 g, the “Ttl Serum Protn” value (iv, 126 mg/kg) was 5.9 g/dL and the “WBC, K/ul” value (iv, 126 mg/kg) was 6.7 K/ul and 9.5 K/ul. The “Wt. Gain April 6, 2000” value (iv, 126 mg/kg) was 3.31 and 3.10, the “Wt. Gain April 19, 2000” value (iv, 126 mg/kg) was 3.56 and 3.26 and the “Wt. Gain Mar. 6, 2000” value (iv, 126 mg/kg) was 2.60 and 2.70. For the same substance, the “Temp Increase” value (iv, 126 mg/kg, Apr. 6, 2000) was 0, the “Temp Increase” value (iv, 126 mg/kg, Mar. 6, 2000) was 0 and the “Blood Glucose Level” value (iv, 126 mg/kg) was 221 mg/dL and 123 mg/dL. For the same substance, the “Mean of blood Glucose level” value (iv, 126 mg/kg) was 172 mg/dL, the “Wt. Gain” value (iv, 126 mg/kg) was 0.96 kg and 0.56 kg and the Albumin (iv, 126 mg/kg) was 5.3. For the same substance, the Globulin (iv, 126 mg/kg) was 0.6, the “Alanine Transferase” value (iv, 185 mg/kg) was 49 and 36 and the “Albumin/Globulin Ratio” value (iv, 185 mg/kg) was 5.8 and 10.2. For the same substance, the “Aspartate Transferase” value (iv, 185 mg/kg) was 26 and 23, the “Blood Urea Nitrogen” value (iv, 185 mg/kg) was 19 mg/dL and 22 mg/dL and the “Cholesterol” value (iv, 185 mg/kg) was 35 mg/dL and 56 mg/dL. The “Cholesterol Mean” value (iv, 185 mg/kg) was 45.5 mg/dL, the Hematocrit (iv, 185 mg/kg) was 35.2% and 37.3% and the “Hematocrit % Mean” value (iv, 185 mg/kg) was 36.3%. The Hemoglobin (iv, 185 mg/kg) was 11.4 g/dL and 12.3 g/dL, the “Hemoglobin Mean” value (iv, 185 mg/kg) was 11.8 g/dL and the “Mean of ALT” value (iv, 185 mg/kg) was 42.5. For the same substance, the “Mean of AST” value (iv, 185 mg/kg) was 24.5, the “Mean of BUN” value (iv, 185 mg/kg) was 20.5 mg/dL and the “Mean of WBC” value (iv, 185 mg/kg) was 8.75 K/ul. For the same substance, the “Mean of Wt.Gain” value (iv, 185 mg/kg) was 1.02, the “Spleen Wt.” value (iv, 185 mg/kg) was 1.71 g and 1.64 g and the “Spleen Wt. Mean” value (iv, 185 mg/kg) was 1.67 g. For the same substance, the “Thymus Wt.” value (iv, 185 mg/kg) was 5.26 g and 5.60 g, the “Thymus Wt. Mean” value (iv, 185 mg/kg) was 5.43 g and the “Ttl Serum Protn” value (iv, 185 mg/kg) was 6.1 g/dL and 5.6 g/dL. The “WBC, K/ul” value (iv, 185 mg/kg) was 10.7 K/ul and 6.8 K/ul, the “Wt. Gain April 6, 2000” value (iv, 185 mg/kg) was 3.19 and 3.26 and the “Wt. Gain April 19, 2000” value (iv, 185 mg/kg) was 3.69 and 3.77. For the same substance, the “Wt. Gain Mar. 6, 2000” value (iv, 185 mg/kg) was 2.80 and 2.61, the “Temp Increase” value (iv, 185 mg/kg, Apr. 6, 2000) was 0 and the “Temp Increase” value (iv, 185 mg/kg, Mar. 6, 2000) was 0. For the same substance, the “Blood Glucose Level” value (iv, 185 mg/kg) was 117 mg/dL and 89 mg/dL, the “Mean of blood Glucose level” value (iv, 185 mg/kg) was 103 mg/dL and the “Wt. Gain” value (iv, 185 mg/kg) was 0.89 kg and 1.16 kg. The Albumin (iv, 185 mg/kg) was 5.2 and 5.1, the Globulin (iv, 185 mg/kg) was 0.9 and 0.5 and the “rectal temperature change over 3 hr post injection” value (any dosages of Fetuin) was “did not cause body temperature increase”.
